# Measured values reported in patent US20260184815A1 (published 2026).
# Molecular target: T1, human plasma kallikrein (human, UniProt P03952 20-390; P03952 391-638)
# T1 construct: also called pKal; Human pKal
# Assay: ELISA, biotinylated pKal signal over streptavidin background
# From the text: Abbreviations used: “T/B” is the ELISA signal obtained using of the “target” (biotinylated plasma kallikrein) divided by the ELISA signal of the “background” (streptavidin); both of which were coated on microtiter plates, “nd” is not determined. The symbol “q” refers to the amber suppressible stop codon (TAG), which is translated as glutamine (Q) in strains of E. coli such as the TG1 cells that were used to express the Fab fragments.
# T1 sequence (P03952 20-390, chain 1 of 2): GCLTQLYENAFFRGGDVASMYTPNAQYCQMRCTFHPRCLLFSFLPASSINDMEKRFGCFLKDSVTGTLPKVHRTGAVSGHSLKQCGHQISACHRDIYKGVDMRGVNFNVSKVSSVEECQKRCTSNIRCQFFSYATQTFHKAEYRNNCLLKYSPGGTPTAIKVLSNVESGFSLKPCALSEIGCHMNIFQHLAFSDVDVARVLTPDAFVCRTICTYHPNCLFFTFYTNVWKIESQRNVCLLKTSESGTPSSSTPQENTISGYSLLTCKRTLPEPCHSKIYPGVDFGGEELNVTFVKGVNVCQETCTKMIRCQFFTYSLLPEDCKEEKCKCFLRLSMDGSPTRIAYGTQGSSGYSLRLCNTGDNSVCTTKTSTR
# T1 sequence (P03952 391-638, chain 2 of 2): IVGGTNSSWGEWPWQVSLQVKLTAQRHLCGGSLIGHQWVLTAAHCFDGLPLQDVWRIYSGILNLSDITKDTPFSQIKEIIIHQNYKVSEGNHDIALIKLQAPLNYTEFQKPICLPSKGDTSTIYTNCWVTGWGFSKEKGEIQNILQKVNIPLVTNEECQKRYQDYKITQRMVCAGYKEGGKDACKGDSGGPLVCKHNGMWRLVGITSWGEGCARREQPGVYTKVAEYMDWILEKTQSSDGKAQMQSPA
row,ELISA (T/B),Binder
1,5.4,"M8-A09 (Fab, V domains shown, HC as printed runs into CH1) VH: EVQLLESGGGLVQPGGSLRLSCAASGFTFSTYFMLWVRQAPGKGLEWVSSIYPSGGNTVYADSVKGRFTISRDNSKNTLYLQMNSLRAEDTAVYYCARAASPVRNYYYYGMDVWGQGTTVTVSS VL: QCELTQPPSESVSPGQTANITCSGDKLGNKYAYWYQQKPGQSPVLVIYQDNNRPSGIPERFSGSNSGNTATLTISGTQAIDEANYYCQAWDSRTVVFGGGTKLTVL"
2,7.6,"M77-H04 (Fab, V domains shown, HC as printed runs into CH1) VH: EVQLLESGGGLVQPGGSLRLSCAASGFTFSYYTMIWVRQAPGKGLEWVSGIRSSGGGTRYADSVKGRFTISRDNSKNTLYLQMNSLRAEDTAVYYCAKDGSRYSYGSIYYYYGMDAWGQGTTVTVSS VL: not shown"
3,45.7,"M7-E07 (Fab, V domains shown, HC as printed runs into CH1) VH: EVQLLESGGGLVQPGGSLRLSCAASGFTFSWYLMIWVRQAPGKGLEWVSYIYPSGGFTYYADSVKGRFTISRDNSKNTLYLQMNSLRAEDMAVYYCARTEGPLSWGYGMDVWGQGTTVTVSS VL: not shown"
4,41.3,"M27-E05 (Fab, V domains shown, HC as printed runs into CH1) VH: EVQLLESGGGLVQPGGSLRLSCAASGFTFSWYLMIWVRQAPGKGLEWVSYIYPSGGFTYYADSVKGRFTISRDNSKNTLYLQMNSLRAEDMAVYYCARTEGPLSWGYGMDVWGQGTTVTVSS VL: not shown"
5,39.2,"M10-F10 (Fab, V domains shown, HC as printed runs into CH1) VH: EVQLLESGGGLVQPGGSLRLSCAASGFTFSFYNMNWVRQAPGKGLEWVSSISPSGGETNYADSVKGRFTISRDNSKNTLYLQMNSLRAEDTAVYYCARGGGAYRNNWWGGFDIWGLGTMVTVSS VL: DIQMTQSPSSLSASVGDRVTITCRASQSISVYLNWYQHKPGKAPKLLIYGASNLQFGVPSRFSGSGYGTDFTLTISSLQPEDFATYHCQQTFSLFTFGGGTKVEIK"
6,33.5,"M38-F02 (Fab, V domains shown, HC as printed runs into CH1) VH: EVQLLESGGGLVQPGGSLRLSCAASGFTFSYYMMVWVRQAPGKGLEWVSYIYSSGGHTVYADSVKGRFTISRDNSKNTLYLQMNSLRAEDTAVYYCARDLFLYDFWSKGAFDIWGQGTMVTVSS VL: QSVLTQPPSVSVSPGQTASITCSGEKLGDKYVSWYQQKPGQSPSLVICEDSRRPSGIPERFSGSNSGNTATLTISGAQPMDEADYYCQAWDSSTAIFGPGTKVTVL"
7,4,"M73-D06 (Fab, V domains shown, HC as printed runs into CH1) VH: EVQLLESGGGLVQPGGSLRLSCAASGFTFSRYEMYWVRQAPGKGLEWVSSISSSGGPTAYADSVKGRFTISRDNSKNTLYLQMNSLRAEDTAMYYCAKGTPKWELLLRSIYIENAFDIWGQGTMVTVSS VL: QSELTQPPSASETPGQRVTISCSGSSSNIGSNTVSWFQQLPGSAPRLLIYNDHRRPSGVPDRFSGSKSGTSASLVISGLQSQDEADYYCSAWDDSLNGVVFGGGTKLTVL"
8,11.1,"M35-G04 (Fab, V domains shown, HC as printed runs into CH1; also called 559A-M0035-G04) VH: EVQLLESGGGLVQPGGSLRLSCAASGFTFSYYHMSWVRQAPGKGLEWVSVISPSGGSTKYADSVKGRFTISRDNSKNTLYLQMNSLRAEDTAVYYCARGGSSDYAWGSYRRPYYFDYWGQGTLVTVSS VL: DIQMTQSPATLSLSPGERATLSCRASQSVSSYLAWYQQKPGQAPRLLIYDASNRATGIPARFSGSGSGTDFTLTISSLEPEDFAVYYCQQRSNWPRGFTFGPGTKVDIK"
9,16.1,"M77-C07 (Fab, V domains shown, HC as printed runs into CH1) VH: EVQLLESGGGLVQPGGSLRLSCAASGFTFSLYIMGWVRQAPGKGLEWVSGIYPSGGFTMYADSVKGRFTISRDNSKNTLYLQMNSLRAEDTAVYYCARESSGVAAPDYWGQGTLVTVSS VL: DIQMTQSPSTLSASVGDRVTITCRASQNISSYLNWYQQKPGKAPKLLIYAASSLQSGVPSRFSGSGSGTDFTLTISSLQPEDFATYSCQQSYSTPRTFGQGTKVEIK"
10,28.8,"M29-E09 (Fab, V domains shown, HC as printed runs into CH1) VH: EVQLLESGGGLVQPGGSLRLSCAASGFTFSWYEMGWVRQAPGKGLEWVSSIYSSGGGTMYADSVKGRFTISRDNSKNTLYLQMNSLRAEDTAVYYCARNPQYSGYDRSLSDGAFDIWGQGTMVTVSS VL: QYELTQPPSVSVSPGQTATITCSGDNLGNKYNSWYQQKPGQSPLLVIYQDTKRPSAIPERFSGSNSGNTATLTISGTQAMDEADYYCQAWDGNVVFGGGTKLTVL"
11,39.9,"M6-D09 (Fab, V domains shown, HC as printed runs into CH1; also called M06-D09; 559A-M0006-D09) VH: EVQLLESGGGLVQPGGSLRLSCAASGFTFSFYYMVWVRQAPGKGLEWVSVIYPSGGITVYADSVKGRFTISRDNSKNTLYLQMNSLRAEDTAVYYCARDKWAVMPPYYYYAMDVWGQGTTVTVSS VL: DIQMTQSPSSLSASVGDRVTITCRASQSIRNYLNWYQQKPGKAPNLLIYAASTLQSGVPARFSGSGSGTDFTLTISSLQPEDFATYYCQQLSGYPHTFGQGTKLEIK"
12,4.1,"M7-B04 (Fab, V domains shown, HC as printed runs into CH1) VH: EVQLLESGGGLVQPGGSLRLSCAASGFTFSWYSMVWVRQAPGKGLEWVSSISPSGGLTNYADSVKGRFTISRDNSKNTLYLQMNSLRAEDTAVYYCARHTAARPFYYYYMDVWGKGTTVTVSS VL: QSALTQPASVSGSPGQSITISCTGTNSDVGNYNLVSWYQQHPGEAPKLLIYEVNKRPSGVSNRFSGSKSGNTASLTISGLQAEDEADYLCCSYAGNRNFYVFGAGTKVTVL"
13,28,"M41-A11 (Fab, V domains shown, HC as printed runs into CH1) VH: EVQLLESGGGLVQPGGSLRLSCAASGFTFSHYRMSWVRQAPGKGLEWVSSIYPSGGRTVYADSVKGRFTISRDNSKNTLYLQMNSLRAEDTAVYYCAKDKFEWRLLFRGIGNDAFDIWGQGTMVTVSS VL: QSVLTQPPSVSVSPGQTASITCSGDKLGDKYTSWYQQRPGQSPVLVIYQDIKRPSGIPERFSGSNSGNTATLTISGTQAMDEADYYCQAWDSPNARVFGSGTKVTVL"
14,47.5,"M29-D09 (Fab, V domains shown, HC as printed runs into CH1; also called 559A-M0029-D09) VH: EVQLLESGGGLVQPGGSLRLSCAASGFTFSWYTMVWVRQAPGKGLEWVSYIYPSGGATFYADSVKGRFTISRDNSKNTLYLQMNSLRAEDTAVYYCAMGSYDYIWGFYSDHWGQGTLVTVSS VL: QSALTQPPTVSVSPGQTARITCSGNKLGDKYVAWYQQKPGQSPMLVIYQDTKRPSRVSERFSGSNSANTATLSISGTQALDEADYYCQAWDSSIVIFGGGTRLTVL"
15,13.4,"M76-H02 (Fab, V domains shown, HC as printed runs into CH1) VH: EVQLLESGGGLVQPGGSLRLSCAASGFTFSMYWMQWVRQAPGKGLEWVSYIYPSGGPTKYADSVKGRFTISRDNSKNTLYLQMNSLRAEDTAVYYCARPSGSYGDAFDIWGQGTMVTVSS VL: DIQMTQSPSSLSASEGDRVTITCRASQDISVYLNWYQMKSGKAPKLLIYGGASLQSGVPARFSGSGYGTDFTLTITDLRPEDFATYYCQQSYSLPFTFGGGTKVEIK"
16,11.2,"M76-D01 (Fab, V domains shown, HC as printed runs into CH1 (ends APSPKS as printed)) VH: EVQLLESGGGLVQPGGSLRLSCAASGFTFSFYAMHWVRQAPGKGLEWVSGIVPSGGRTHYADSVKGRFTISRDNSKNTLYLQMNSLRAEDTAVYYCATDSSGSPNPLFDYWGQGTLVTVSS VL: DIVMTQTPPSLPVNPGEPASISCRSSQSLSDDGNTYLDWYLQRPGQSPQLLIHTLSYRASGVPDRFSGSGSGTDFTLKISRVEAEDVGVYYCMQGTHWPPTFGQGTKVEIK"
